From patent publication US20220213151A1 come the findings set out here.

Read-outs that look alike come from different tables or passages of the source.

Test [1] deals with rhu EGFR (Fc) (human (rhu)) (UniProt P00533). Briefly: pH 6.
Test [2] has the same target.

Consider “A-dmDT390-EGF (other; other documents disagree on this pair)”, for which the Kd was found to be 102 nM in test [1] and 5.81 nM in test [2].
